What was measured:
[1] = target: T1, Aβ1–42 (Homo sapiens, UniProt P05067); assay: Far-Western dot blot: binding of Aβ1–42 to spotted neutrophil proteins; conditions: Aβ1–42 […] (56 nM) with protease inhibitor cocktail; 1 μg spotted protein
T1 construct: Amyloid beta 1–42 (Aβ1–42), a known RAGE ligand; purchased Bachem (Torrance, CA)
Procedure: After spotting, membranes were rinsed with ultrapure water, and Ponceau S (Sigma Aldrich) was used to stain for spotted proteins. Ponceau S was rinsed off with ultrapure water, and membrane blots were blocked for 2 h at room temperature in PBST containing 3% BSA. […] Blots were washed three times with PBST for 10 min, and then incubated with either rabbit anti-RAGE primary antibody (0.8μg/ml) or mouse anti-APP/Aβ (0.25μg/ml) for 2 h at room temperature. Blots were washed three times with PBST for 10 min, and then incubated with donkey anti-rabbit or donkey anti-mouse secondary antibodies at 0.04μg/ml for 45 min at room temperature. Blots were washed three times with PBST. Enhanced chemiluminescent or SuperSignal West femto maximum sensitivity substrates (Pierce) were used to develop blots. Mean dot densities were quantified and normalized to ponceau S dot densities using Image J software (National Institutes of Health (NIH), Bethesda, MD).
Blots were incubated with rocking overnight at 4°C.
(§1) All statistics were performed using Graph Pad Prism 6 (GraphPad Software, La Jolla, CA). Data are represented as mean± SEM of results. […] Two-way analysis of variances (ANOVAs) were performed with Dunnett’s multiple comparison tests. […] Kruskal-Wallis tests with Dunn’s multiple comparison tests were used to analyze binding by Far-Western dot blotting (see figure legends 3 and 6 for details on multiple comparison tests). […] To obtain dissociation constants (Kd), half-maximal inhibitory concentrations (IC50), and maximum absorbance values, BSA was subtracted as background and values were fitted to a curve of nonlinear regression.

[2] = target: T2, RAGE Fc chimera (Homo sapiens, UniProt Q15109); assay: Far-Western dot blot: binding of RAGE to spotted proteins ± GM-0111; parameters: purchased R&D Systems Inc. (Minneapolis, MN); conditions: 1 μg spotted protein (0.5 μg Aβ1–42)
T2 sequence (Q15109 with tags, fused parts or gaps limits assumed): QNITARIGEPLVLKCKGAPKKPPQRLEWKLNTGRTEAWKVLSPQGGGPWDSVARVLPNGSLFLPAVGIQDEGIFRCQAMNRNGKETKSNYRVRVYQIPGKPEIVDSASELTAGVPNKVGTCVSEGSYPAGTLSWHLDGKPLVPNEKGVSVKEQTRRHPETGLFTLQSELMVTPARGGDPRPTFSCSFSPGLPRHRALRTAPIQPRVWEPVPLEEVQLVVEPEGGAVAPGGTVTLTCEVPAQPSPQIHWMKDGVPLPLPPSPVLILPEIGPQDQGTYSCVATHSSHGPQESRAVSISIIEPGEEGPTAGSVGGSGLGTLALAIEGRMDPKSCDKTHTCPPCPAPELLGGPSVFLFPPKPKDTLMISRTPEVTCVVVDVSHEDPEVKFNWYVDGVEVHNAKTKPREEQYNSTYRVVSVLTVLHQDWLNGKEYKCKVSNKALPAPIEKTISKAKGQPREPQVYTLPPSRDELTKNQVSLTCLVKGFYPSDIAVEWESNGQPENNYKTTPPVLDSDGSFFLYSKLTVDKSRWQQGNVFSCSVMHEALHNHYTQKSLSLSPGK
Procedure: as §1

[3] = target: T1, Aβ1–42; assay: ELISA: binding of Aβ1–42 to coated neutrophil proteins; conditions: for Log binding (Aβ1–42): 0.5 μg/well coated protein, with protease inhibitor cocktail, log OD 492 nm, mean ± SEM, n = 3; for maximum absorbance value for Aβ1–42 binding: ELISA with protease inhibitors, BSA subtracted, nonlinear regression fit
Procedure: (§2) The plates were washed three times with PBS containing 0.05% tween (PBST), and then blocked in PBST containing 3% bovine serum albumin (BSA). Indicated proteins were added to the plate in 50 μL PBST containing 0.1% BSA and incubated at 37°C for 70 mins. Wells were washed four times with PBST, and then incubated with 50 μL of goat anti-RAGE primary antibody (0.5 μg/ml) or mouse anti-APP/Aβ antibody (0.5 μg/ml-1 μg/ml) for 1 h. After washing the wells four times with PBST, 50 μL of rabbit anti-goat at 0.16 μg/ml or donkey anti-mouse at 0.04–0.08 μg/ml secondary antibodies were added for 1 h at room temperature.
as §1

[4] = target: T2, RAGE Fc chimera; assay: ELISA: binding of RAGE to coated neutrophil proteins; parameters: purchased R&D Systems Inc. (Minneapolis, MN); conditions: for maximum absorbance value for RAGE binding: ELISA, BSA subtracted as background, nonlinear regression fit; for Log binding (RAGE): wells coated 0.5 μg/well protein, log-transformed OD 492 nm, mean ± SEM
Procedure: as §2
Goat anti-RAGE primary antibody at 0.5 μg/ml was used to detect bound RAGE.
as §1

[5] = target: T3, Aβ1–42 binding to RAGE (Homo sapiens, UniProt Q15109); assay: ELISA: competitive inhibition of Aβ1–42 binding to RAGE by neutrophil proteins added simultaneously
T3 construct: purchased R&D Systems Inc. (RAGE Fc chimera); Bachem (Aβ1–42)
T3 sequence (Q15109 with tags, fused parts or gaps limits assumed): as above
Procedure: as §2, §1

[6] = target: T2, RAGE Fc chimera; assay: ELISA: Aβ1–42 binding to RAGE after pre-incubation of Aβ1–42 with neutrophil proteins; parameters: purchased R&D Systems Inc. (RAGE Fc chimera); Bachem (Aβ1–42)
Procedure: as §2
In this set of experiments, the maxisorp plates were coated with RAGE Fc chimera (0.5 μg/well, 83.3 nM) overnight at 4°C.
as §1

Row | Substance | binding of Aβ1–42 (far-Western dot blot) [1] | binding of RAGE (far-Western dot blot) [2] | Log binding (Aβ1–42) ([3]; Aβ1–42 0 nM (background)) | Log binding (Aβ1–42) ([3]; Aβ1–42 3.47 nM) | Log binding (Aβ1–42) ([3]; Aβ1–42 13.89 nM) | Log binding (Aβ1–42) ([3]; Aβ1–42 27.78 nM) | Log binding (Aβ1–42) ([3]; Aβ1–42 55.56 nM) | maximum absorbance value for Aβ1–42 binding [3] | maximum absorbance value for RAGE binding [4] | Log binding (RAGE) ([4]; RAGE 0 nM (background)) | Log binding (RAGE) ([4]; RAGE 0.83 nM) | Log binding (RAGE) ([4]; RAGE 1.67 nM) | Log binding (RAGE) ([4]; RAGE 3.33 nM) | IC50 ([5]; read-out: IC50 for inhibition of Aβ1–42 binding to RAGE, Aβ1–42 11 nM added simultaneously with the protein to RAGE-coated wells, absence of protease inhibitors) | inhibition of Aβ1–42 binding to RAGE in the presence of protease inhibitors ([5]; with protease inhibitor cocktail, Aβ1–42 11 nM) | Log binding (Aβ1–42) ([3]; Aβ1–42 […]) | maximum absorbance value for Aβ1–42 binding to RAGE ([6]; Aβ1–42 pre-incubated with neutrophil elastase 2 μg/ml) | Kd ([6]; read-out: KD value for Aβ1–42 binding to RAGE, Aβ1–42 pre-incubated overnight 4°C with neutrophil elastase 2 μg/ml (80 nM))
1 | bovine serum albumin [BSA, reference compound] | No binding | did not detect visible binding |  |  |  |  |  |  |  |  |  |  |  |  |  |  |  | 
2 | cathepsin G | strong binding | not significantly higher than RAGE binding to BSA | • -0.884±0.103 • p = 0.0004 | • -0.368±0.157 • p<0.0001 | • 0.019±0.165 • p<0.0001 | • 0.151±0.149 • p<0.0001 | • 0.310±0.125 • p<0.0001 | 3.54 | 2.14 | -0.426 | • 0.101±0.084 • p<0.0001 | • 0.166±0.092 • p<0.0001 | • 0.192±0.096 • p<0.0001 |  |  |  |  | 
3 | neutrophil elastase | low binding | did not detect visible binding | -1.061 | -0.961 | • -0.720±0.151 • p = 0.0064 | • -0.414±0.154 • p<0.0001 | • -0.146±0.153 • p<0.0001 | 5.89 | 1.11 | -0.756 | -0.376 | • -0.274±0.113 • p = 0.046 | • -0.121±0.104 • p = 0.003 | 4.85 nM | No inhibition | • -0.890±0.127 • p = 0.0064 | 0.15 OD 492 nm | 131 nM
